Data: patent publication US20250043302A1, “MUTATED HYDROXYPHENYLPYRUVATE DIOXYGENASE POLYPEPTIDE, AND CODING GENE AND USE THEREOF” (BEIJING DABEINONG BIOTECHNOLOGY CO., LTD., priority 2021, published 2025)

Columns and labels:
Type in all cases: in vivo
[1] = system: Arabidopsis thaliana T1 plants; assay: Topramezone tolerance of transgenic Arabidopsis thaliana T1 plants (spray, bleached leaf area grade, damage score); details: Table 13; for Classification and statistics of the grade of pesticide damage Grade 0: number of plants at grade 0; for Classification and statistics of the grade of pesticide damage Grade 1: number of plants at grade 1; for Classification and statistics of the grade of pesticide damage Grade 2: number of plants at grade 2; for Classification and statistics of the grade of pesticide damage Grade 3: number of plants at grade 3; for Scores: pesticide damage score
Outline: (§1)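 Damage graded 0–3 from the proportion of bleached leaf area 7 days after spraying. Plants were glufosinate-selected T1 lines, 18 days after sowing, plus vector and wild-type controls. Rates: mesotrione 52.5–420, isoxaflutole 35–280, topramezone 25–200 g ai/ha, with water (0×).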

[2] = system: Arabidopsis thaliana T1 plants; assay: Isoxaflutole tolerance of transgenic Arabidopsis thaliana T1 plants (spray, bleached leaf area grade, damage score); details: for Classification and statistics of the grade of pesticide damage Grade 0 / Classification and statistics of the grade of pesticide damage Grade 1 / Classification and statistics of the grade of pesticide damage Grade 2 / Classification and statistics of the grade of pesticide damage Grade 3: number of plants in grade;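 as to Scores: Weighted damage index from 0 to 100 where higher means more damage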
Outline: as §1

[3] = system: Arabidopsis thaliana T1 plants; assay: Mesotrione tolerance of transgenic Arabidopsis thaliana T1 plants (spray, bleached leaf area grade, damage score); design: Scores: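 damage score 0-100 computed as Σ(N×S)/(T×M)×100 over grades 0-3 with higher meaning more damage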; details: for Classification and statistics of the grade of pesticide damage Grade 0 / Classification and statistics of the grade of pesticide damage Grade 1 / Classification and statistics of the grade of pesticide damage Grade 2 / Classification and statistics of the grade of pesticide damage Grade 3: number of plants in grade
Outline: as §1

B1: AtHPPDm-F415W-02: nucleotide sequence encoding Arabidopsis thaliana HPPD with F415W; vector DBN11793 (nucleic acid)
DNA: ATGGGACATCAGAATGCTGCTGTATCAGAAAATCAAAATCATGATGATGGAGCCGCCTCCTCACCAGGGTTTAAGTTGGTTGGGTTCTCCAAGTTTGTACGGAAGAACCCAAAATCCGACAAGTTCAAGGTTAAACGCTTCCACCACATTGAATTCTGGTGCGGCGACGCCACCAATGTTGCTCGGCGTTTTTCATGGGGTTTAGGCATGAGATTCTCAGCAAAGAGTGACCTGAGCACCGGCAACATGGTTCATGCTAGCTATCTCTTAACATCTGGAGATTTGAGGTTTCTTTTCACGGCGCCGTACTCACCATCACTCTCCGCCGGCGAGATCAAACCCACCACGACTGCAAGCATACCTTCATTTGATCATGGTAGTTGCAGATCCTTCTTCTCGTCGCACGGCCTAGGGGTGCGCGCGGTCGCCATCGAAGTTGAAGATGCAGAATCAGCGTTTAGTATCAGCGTGGCAAATGGAGCTATTCCTTCCTCCCCTCCAATTGTCCTCAATGAGGCTGTAACTATTGCCGAGGTGAAGTTGTATGGAGATGTTGTGCTGAGATATGTTTCTTACAAGGCAGAGGACACTGAGAAATCTGAATTTTTGCCTGGTTTTGAAAGGGTCGAGGATGCTTCAAGTTTTCCTCTTGATTACGGCATACGACGGTTGGATCACGCGGTTGGAAATGTACCAGAACTTGGGCCGGCGCTCACTTATGTGGCTGGTTTCACTGGATTCCATCAATTTGCTGAGTTCACAGCTGATGATGTTGGGACTGCTGAAAGTGGGTTGAACTCTGCAGTCCTCGCCTCTAATGATGAAATGGTGCTCCTCCCGATCAACGAGCCTGTGCATGGCACCAAAAGGAAATCACAAATACAGACATATCTTGAGCACAATGAAGGTGCAGGGCTTCAACATCTTGCACTGATGTCTGAAGACATTTTCCGTACGCTGAGAGAGATGAGGAAGAGAAGTAGTATTGGTGGATTTGACTTCATGCCTTCTCCCCCACCAACTTACTACCAGAACTTGAAGAAGAGGGTTGGTGATGTGCTATCTGATGACCAGATCAAGGAGTGTGAAGAATTGGGCATTCTTGTTGATCGGGACGACCAAGGAACATTACTGCAGATATTTACAAAACCACTTGGTGACCGCCCCACTATTTTTATTGAGATCATACAAAGAGTCGGCTGCATGATGAAGGATGAGGAAGGAAAAGCATATCAATCTGGTGGTTGTGGCGGCTTTGGGAAAGGAAACTGGTCTGAGCTGTTCAAATCCATCGAGGAGTATGAGAAGACCTTGGAGGCCAAGCAGCTCGTGGGTTGA
modifications: AtHPPDm-F415W-02 Nucleotide Sequence
notes: vector DBN11793
16: Classification and statistics of the grade of pesticide damage Grade 3 ([1]; topramezone 25 g ai/ha (1×)) | Classification and statistics of the grade of pesticide damage Grade 3 ([1]; topramezone 100 g ai/ha (4×)) | Classification and statistics of the grade of pesticide damage Grade 3 ([2]; isoxaflutole 35 g ai/ha) | Classification and statistics of the grade of pesticide damage Grade 3 ([2]; isoxaflutole 70 g ai/ha) | Classification and statistics of the grade of pesticide damage Grade 3 ([3]; mesotrione 52.5 g ai/ha) | Classification and statistics of the grade of pesticide damage Grade 3 ([3]; mesotrione 105 g ai/ha)
Non-resistant: Resistance evaluation ([1]; topramezone 25 g ai/ha (1×)) | Resistance evaluation ([1]; topramezone 100 g ai/ha (4×)) | Resistance evaluation ([2]; isoxaflutole 35 g ai/ha) | Resistance evaluation ([2]; isoxaflutole 70 g ai/ha) | Resistance evaluation ([3]; mesotrione 52.5 g ai/ha) | Resistance evaluation ([3]; mesotrione 105 g ai/ha)
0: Classification and statistics of the grade of pesticide damage Grade 0 ([1]; topramezone 25 g ai/ha (1×)) | Classification and statistics of the grade of pesticide damage Grade 1 ([1]; topramezone 25 g ai/ha (1×)) | Classification and statistics of the grade of pesticide damage Grade 2 ([1]; topramezone 25 g ai/ha (1×)) | Classification and statistics of the grade of pesticide damage Grade 0 ([1]; topramezone 100 g ai/ha (4×)) | Classification and statistics of the grade of pesticide damage Grade 1 ([1]; topramezone 100 g ai/ha (4×)) | Classification and statistics of the grade of pesticide damage Grade 2 ([1]; topramezone 100 g ai/ha (4×)) | Classification and statistics of the grade of pesticide damage Grade 0 ([2]; isoxaflutole 35 g ai/ha) | Classification and statistics of the grade of pesticide damage Grade 1 ([2]; isoxaflutole 35 g ai/ha) | Classification and statistics of the grade of pesticide damage Grade 2 ([2]; isoxaflutole 35 g ai/ha) | Classification and statistics of the grade of pesticide damage Grade 0 ([2]; isoxaflutole 70 g ai/ha) | Classification and statistics of the grade of pesticide damage Grade 1 ([2]; isoxaflutole 70 g ai/ha) | Classification and statistics of the grade of pesticide damage Grade 2 ([2]; isoxaflutole 70 g ai/ha) | Classification and statistics of the grade of pesticide damage Grade 0 ([3]; mesotrione 52.5 g ai/ha) | Classification and statistics of the grade of pesticide damage Grade 1 ([3]; mesotrione 52.5 g ai/ha) | Classification and statistics of the grade of pesticide damage Grade 2 ([3]; mesotrione 52.5 g ai/ha) | Classification and statistics of the grade of pesticide damage Grade 0 ([3]; mesotrione 105 g ai/ha) | Classification and statistics of the grade of pesticide damage Grade 1 ([3]; mesotrione 105 g ai/ha) | Classification and statistics of the grade of pesticide damage Grade 2 ([3]; mesotrione 105 g ai/ha)
100: Scores ([1]; topramezone 25 g ai/ha (1×)) | Scores ([1]; topramezone 100 g ai/ha (4×)) | Scores ([2]; isoxaflutole 35 g ai/ha) | Scores ([2]; isoxaflutole 70 g ai/ha) | Scores ([3]; mesotrione 52.5 g ai/ha) | Scores ([3]; mesotrione 105 g ai/ha)
